Measured values from patent publication US20150119475.

Biological target: Snail protein (SNAI1/Snail, expressed as GST fusion in E. coli, GST moiety cleaved with thrombin) (UniProt O95863)
Sequence (O95863 whole entry, the tested form may be a part): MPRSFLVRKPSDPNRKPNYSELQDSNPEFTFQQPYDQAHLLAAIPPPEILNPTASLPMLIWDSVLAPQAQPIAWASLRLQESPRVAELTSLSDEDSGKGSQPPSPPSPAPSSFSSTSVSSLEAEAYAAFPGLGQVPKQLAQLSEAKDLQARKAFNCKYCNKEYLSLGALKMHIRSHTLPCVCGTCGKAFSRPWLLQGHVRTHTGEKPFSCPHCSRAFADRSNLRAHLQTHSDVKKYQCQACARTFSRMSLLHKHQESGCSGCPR

recombinant Akt3 (ProQinase GmbH)
in vitro kinase assay with 32P-ATP, detected by autoradiography: Akt1 and Akt3 kinases are able to directly phosphorylate Snail protein
